Broadly, the Kd is the concentration at which binding is half-saturated. A low value points to higher affinity.

In patent US9259432 one finds Kd data, which are given here for 1 substance.

This test concerns the target S100B protein. In words: tryptophan fluorescence quenching, S100B titrated into 5.0 µM peptide, 0.1 mM CaCl2, 12° C.

Sequence of S100B protein (P02638 2-92): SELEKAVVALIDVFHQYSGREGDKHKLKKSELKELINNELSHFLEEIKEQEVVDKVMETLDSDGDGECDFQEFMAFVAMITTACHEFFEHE

In the case of TRTK12 peptide, the Kd came out at 211 nM.
